From patent publication US20250066490A1 (PROFOUNDBIO US, published 2025)

What was measured:
[1] = target: T1, human CD70 expressed on the cell surface of tumor cell lines (human, UniProt P32970 1-193); assay: flow cytometry on Caki-1 cells
T1 construct: whole, on cells
T1 sequence (looked up): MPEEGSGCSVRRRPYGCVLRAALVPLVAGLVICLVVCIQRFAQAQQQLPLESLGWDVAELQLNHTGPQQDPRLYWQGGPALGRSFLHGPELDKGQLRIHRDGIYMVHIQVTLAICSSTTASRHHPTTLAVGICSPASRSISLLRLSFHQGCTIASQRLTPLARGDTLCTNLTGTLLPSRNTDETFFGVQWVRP
Description: (§1) The lead antibodies were tested for binding to renal carcinoma cells and glioblastoma cells expressing CD70 on the cell surface by flow cytometry. […] U251 cells were cultured with MEM medium containing of 10% FBS and 1% NEAA+1 mM sodium pyruvate. DBTRG-05MG cells were cultured with DMEM medium (Gibco, Cat #C11995500BT) containing of 10% FBS. Each of the lead antibodies and the controls were incubated for 30 mins with the different cell lines (3×10⁵ cells per well) in 0.2 ml FACS buffer (1×PBS with 0.1% BSA) at 4° C. Then, the cells were pelleted, washed, and incubated at 4° C. for 30 mins with 100 μl of 1:200 diluted PE-conjugated anti human Fc (Abcam, Ab98596) in FACS buffer. The cells were pelleted again, washed with PBS, resuspended in FACS buffer and analyzed by flow cytometer (Beckman, CytoFLEX).
(§2) Antibodies 2H8 and 2D2 had slightly higher binding ability to the cell lines than that of antibody 69A7.

[2] = target: T1, human CD70 expressed on the cell …; assay: flow cytometry on U251 cells
Description: as §1, §2

[3] = target: T1, human CD70 expressed on the cell …; assay: flow cytometry on U251 cells, PE anti-human Fc, MFI; same fit as Table 6, which prints it in nM
Description: as §1, §2

[4] = target: T1, human CD70 expressed on the cell …; assay: flow cytometry on 786-O cells
Description: as §1, §2

[5] = target: T1, human CD70 expressed on the cell …; assay: flow cytometry on Caki-1 cells, PE anti-human Fc, MFI; same fit as Table 6, which prints it in nM
Description: as §1, §2

[6] = target: T2, rat CD70 extra-cellular domain (ECD) linked to His tag (rat); assay: BLI, global fit, cell repeated in each row; response below range of quantification, filing reports no cross-reactivity
T2 construct: extracellular domain
Description: (§3) Recombinant proteins consisting of human, rat, or mouse CD70 extra-cellular domain (ECD) linked to His tag was purchased (from ACRO systems). 69A7 and 2E7 (20 nM) were immobilized on anti-human IgG Fc biosensor tips (ForteBio). Binding assays using one concentration (100 nM) of recombinant protein in solution were performed using Octet RED (ForteBio). Association time was set at 180s and dissociation time was set at 300s. Binding affinity was calculated using ForteBio Data Acquisition 6.3 software. Affinity was derived by fitting the kinetic data to a 1:1 Langmuir binding model utilizing global fitting algorithms. […] 2E7 had no cross-reactivity to rat or mouse CD70 (Table 10).

[7] = target: T3, mouse CD70 extra-cellular domain (ECD) linked to His tag (mouse, UniProt O55237 45-195); assay: as above
T3 construct: extracellular domain; also called MS CD70; not shown: His tag
T3 sequence (looked up): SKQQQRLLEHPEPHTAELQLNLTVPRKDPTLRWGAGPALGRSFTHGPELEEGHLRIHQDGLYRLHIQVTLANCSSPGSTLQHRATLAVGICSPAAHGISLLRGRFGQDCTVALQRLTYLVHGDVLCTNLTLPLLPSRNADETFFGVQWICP
Description: as §3

[8] = target: T1, human CD70 expressed on the cell …; assay: flow cytometry on 786-O cells, PE anti-human Fc, MFI; same fit as Table 6, which prints it in nM
Description: as §1, §2

[9] = target: T4, cynomolgus CD70 recombinant protein (cynomolgus, UniProt A0A2K5WTU9 39-190); assay: ELISA, IgG titrated on coated cynomolgus CD70 recombinant protein (2 µg/ml), anti-human Fc-HRP, OD450
T4 construct: also called cyno-antigen; cynomolgus CD70 protein
T4 sequence: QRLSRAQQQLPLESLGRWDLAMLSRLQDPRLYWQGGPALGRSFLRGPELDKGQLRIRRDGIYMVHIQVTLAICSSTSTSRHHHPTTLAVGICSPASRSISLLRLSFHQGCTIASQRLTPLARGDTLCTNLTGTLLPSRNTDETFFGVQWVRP
Description: The binding specificity of the CD70 antibodies was tested by ELISA according to a standard protocol. Briefly, 96-well micro-plates were coated with 2 μg/ml of human or cynomolgus CD70 recombinant protein in PBS at 100 μl per well and incubated overnight at 4° C. The plates were washed twice with TBS+0.5% Tween20. 200 μL of blocking buffer (2% BSA in PBS) was added to each well, and the plates were incubated at 37° C. for 2 hours. The plates were washed using the wash buffer mentioned above. Serially diluted antibodies were added to the ELISA plates using 100 μl per well, and the plates were incubated for 1 hour at room temperature. Then plates were washed 3 times. HRP conjugated anti-human Fc antibody solution (Sigma, I18885-2ML, diluted with blocking buffer) was added to the plates using 100 μl per well. The plates were incubated at room temperature for 1 hour and then washed 3 times. Then the TMB solution was added to plates using 100 μl per well and the plates were placed at RT for 5-15 mins. Then the stop solution (2M H2SO4) was added using 50 μl per well. The absorbance was measured at A450 and A630.

[10] = target: T1, human CD70 expressed on the cell …; assay: flow cytometry on Raji cells
Description: Binding activity of 2E7 or the isotype control with a target cell line (Raji) or a cell line (MCF-7) that has negligible level of CD70 expression were evaluated by flow cytometry (Beckman, Cytoflex). 3×10⁵ cells per well were seeded on a 96-well V-bottomed plate and incubated with 100 μl of 2E7 in serial dilutions. After 30 min incubation at 4° C., cells were washed twice with PBS, stained with 100 μl of 1:200 diluted PE-conjugated anti-human Fc in FACS buffer (1×PBS containing 1% BSA), then incubated at 4° C. for 30 min. Cells were finally washed two times with PBS and analyzed by flow cytometric analysis.

EC50 [1]: 2.81 nM
EC50 [2]: 4.03 nM
EC50 [3]: 0.604 µg/mL
EC50 [4]: 2.69 nM
EC50 [5]: 0.421 µg/mL
Kd [6]: 1.75 nM
koff [6]: 0.0104 s⁻¹
kon [6]: 5.9e+06 M⁻¹ s⁻¹
Kd [7]: 1030 nM
koff [7]: 0.121 s⁻¹
kon [7]: 117000 M⁻¹ s⁻¹
EC50 [8]: 0.403 µg/mL
EC50 [9]: 0.00401 µg/mL
EC50 [10]: ~19 nM
B1: 2E7, full IgG (antibody, V domains shown)
VH: QVQLQESGPGLVKPSETLSLTCTVSGGSVSSDYYYWSWIRQPPGKGLEWLGYIYYSGSTNYNPSLKSRVTISVDTSKNQFSLKLRSVTTADTAVYYCARGDGDFLGVCFDYWGQGTLVTVSS
VL: EIVLTQSPATLSLSPGERATLSCRASQSVSSYLAWYQQKPGQAPRLLIFDASNRATGIPARFSGSGSGTDFTLTISSLEPEDFAVYYCQQRSNWPLTFGGGTKVEIK
